Data set [1] addresses Human insulin receptor ectodomain (HIR) (Homo sapiens, UniProt P06213-2;P06213-2 28-746;751-944). Put plainly: fluorescent Ni-plate binding assay (FNBA); PBS (1.5 mM KH2PO4, 8.1 mM Na2HPO4, 2.7 mM KCl, 137 mM NaCl) with 5 mM MgCl2, pH 7.4; MST with 0.1% Pluronic F-127 at 25 C; FNBA at room temperature; high values mean tight binding. The note with it: protein: commercial, tags: His-tag, chain copies: 2;2, label: 5'-Cy5.

Data set [2] deals with Human insulin receptor ectodomain (HIR) (Homo sapiens, UniProt P06213-2 28-944). Put plainly: FNBA; IB: PBS (1.5 mM KH2PO4, 8.1 mM Na2HPO4, 2.7 mM KCl, 137 mM NaCl) + 5 mM MgCl2, pH 7.4; MST +0.1% Pluronic F-127, 25 C; SPR 25 C; FNBA and BLI r.t. The note with it: protein: commercial; tags: His-tag; chain copies: 2; label: 5'-Cy5.

Changes are numbered by the printed parent chain.

Sequence of Human insulin receptor ectodomain (HIR) (Homo sapiens, UniProt P06213-2;P06213-2 28-746;751-944) (P06213 other isoform, or with tags, fused parts or gaps, chain 1 of 2): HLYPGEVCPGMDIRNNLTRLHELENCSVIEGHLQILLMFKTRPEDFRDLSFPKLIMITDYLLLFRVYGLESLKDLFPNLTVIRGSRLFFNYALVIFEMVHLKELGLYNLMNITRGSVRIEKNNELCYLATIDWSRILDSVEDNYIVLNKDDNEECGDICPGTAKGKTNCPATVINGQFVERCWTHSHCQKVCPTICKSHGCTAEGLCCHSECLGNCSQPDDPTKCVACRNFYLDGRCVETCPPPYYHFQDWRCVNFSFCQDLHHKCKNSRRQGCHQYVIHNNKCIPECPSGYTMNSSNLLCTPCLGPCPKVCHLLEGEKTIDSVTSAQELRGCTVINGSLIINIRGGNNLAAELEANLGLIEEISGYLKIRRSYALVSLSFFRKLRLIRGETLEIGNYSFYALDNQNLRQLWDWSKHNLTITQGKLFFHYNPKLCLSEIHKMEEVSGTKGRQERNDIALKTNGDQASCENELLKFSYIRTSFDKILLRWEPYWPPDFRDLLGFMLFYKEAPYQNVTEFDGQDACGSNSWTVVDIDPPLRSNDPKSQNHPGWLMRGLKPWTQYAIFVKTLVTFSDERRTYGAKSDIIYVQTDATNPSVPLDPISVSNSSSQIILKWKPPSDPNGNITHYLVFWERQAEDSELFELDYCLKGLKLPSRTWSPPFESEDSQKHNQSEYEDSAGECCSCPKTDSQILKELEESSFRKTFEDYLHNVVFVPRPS
Sequence of Human insulin receptor ectodomain (HIR) (Homo sapiens, UniProt P06213-2;P06213-2 28-746;751-944) (P06213 763-956, chain 2 of 2): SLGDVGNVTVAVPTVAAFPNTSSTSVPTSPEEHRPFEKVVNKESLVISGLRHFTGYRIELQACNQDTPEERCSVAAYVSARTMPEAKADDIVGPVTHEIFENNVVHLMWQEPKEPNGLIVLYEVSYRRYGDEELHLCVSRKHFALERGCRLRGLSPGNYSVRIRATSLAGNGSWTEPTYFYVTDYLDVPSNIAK
Sequence of Human insulin receptor ectodomain (HIR) (Homo sapiens, UniProt P06213-2 28-944) (P06213 other isoform, or with tags, fused parts or gaps): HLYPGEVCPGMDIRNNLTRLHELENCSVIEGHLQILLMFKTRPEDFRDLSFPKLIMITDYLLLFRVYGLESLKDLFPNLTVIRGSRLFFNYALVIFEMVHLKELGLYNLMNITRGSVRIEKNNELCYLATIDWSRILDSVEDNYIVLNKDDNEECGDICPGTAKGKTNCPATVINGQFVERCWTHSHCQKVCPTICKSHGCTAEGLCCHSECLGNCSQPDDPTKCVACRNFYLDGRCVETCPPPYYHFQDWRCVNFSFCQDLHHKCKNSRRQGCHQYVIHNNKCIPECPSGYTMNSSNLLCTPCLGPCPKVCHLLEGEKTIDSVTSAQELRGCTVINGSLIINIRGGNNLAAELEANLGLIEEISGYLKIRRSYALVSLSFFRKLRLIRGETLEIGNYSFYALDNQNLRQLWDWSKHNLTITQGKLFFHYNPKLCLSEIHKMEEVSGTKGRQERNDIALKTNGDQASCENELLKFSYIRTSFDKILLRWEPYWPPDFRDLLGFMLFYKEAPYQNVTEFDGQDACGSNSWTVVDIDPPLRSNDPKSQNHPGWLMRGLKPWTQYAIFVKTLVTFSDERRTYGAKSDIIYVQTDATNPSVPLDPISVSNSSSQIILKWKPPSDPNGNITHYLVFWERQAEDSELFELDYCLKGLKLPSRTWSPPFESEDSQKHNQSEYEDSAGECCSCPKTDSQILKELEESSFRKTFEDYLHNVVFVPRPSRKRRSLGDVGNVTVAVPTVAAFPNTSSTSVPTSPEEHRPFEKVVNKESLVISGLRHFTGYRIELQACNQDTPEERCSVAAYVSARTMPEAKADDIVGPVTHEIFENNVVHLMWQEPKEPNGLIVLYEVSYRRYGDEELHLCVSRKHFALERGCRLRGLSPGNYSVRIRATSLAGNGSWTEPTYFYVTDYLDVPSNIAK

B1: HIR-6_T1 (XNA)
DNA: CATGACGCTCACTGTATCTCGCGUUUAACGUAACAGCGAUGUCUCUCAUG
modifications: DNA backbone; 7-deaza-7-(indolyl-ethyl)-dA (dAAIn) at 27,28,32,33,35,39,48; 5-(phenyl-ethynyl)-dU (dUEPh) at 24,25,26,31,40,42,44,46,49
On to B1, for which the binding signal in data set [1] was 26300 a.u. fluorescence.

B2: HIR-6_T8 (XNA)
DNA: ACTGTATCTCGCGUUUAACGUAACAGCGAU
modifications: DNA backbone; 7-deaza-7-(indolyl-ethyl)-dA (dAAIn) at 17,18,22,23,25,29; 5-(phenyl-ethynyl)-dU (dUEPh) at 14,15,16,21,30
B2 came in with a binding signal in data set [1] of 13400 a.u. fluorescence.

B3: HIR-6_T2 (XNA)
DNA: CATGACGCTCACTGTATCTCGCGUUUAACGUAACAGCGAUGUCUC
modifications: DNA backbone; 7-deaza-7-(indolyl-ethyl)-dA (dAAIn) at 27,28,32,33,35,39; 5-(phenyl-ethynyl)-dU (dUEPh) at 24,25,26,31,40,42,44
The molecule B3 had a binding signal in data set [1] of 30900 a.u. fluorescence.

B4: HIR-6_T5 (XNA)
DNA: ACTGTATCTCGCGUUUAACGUAACAGCGAUGUCUCUCAUGAUGUC
modifications: DNA backbone; 7-deaza-7-(indolyl-ethyl)-dA (dAAIn) at 17,18,22,23,25,29,38,41; 5-(phenyl-ethynyl)-dU (dUEPh) at 14,15,16,21,30,32,34,36,39,42,44
B4 returned a binding signal in data set [1] of 45900 ± 733 a.u. fluorescence.

B5: HIR-6 (XNA)
DNA: CATGACGCTCACTGTATCTCGCGUUUAACGUAACAGCGAUGUCUCUCAUGAUGUC
modifications: DNA backbone; 7-deaza-7-(indolyl-ethyl)-dA (dAAIn) at 27,28,32,33,35,39,48,51; 5-(phenyl-ethynyl)-dU (dUEPh) at 24,25,26,31,40,42,44,46,49,52,54
On to B5, for which, in data set [1] (hairpin, stem 18-22/36-40, A35 bulge), the binding signal came to 45000 ± 766 a.u. fluorescence.

B6: HIR-6_T6 (XNA)
DNA: TATCTCGCGUUUAACGUAACAGCGAUGUCUCUCAUGAUGUC
modifications: DNA backbone; 7-deaza-7-(indolyl-ethyl)-dA (dAAIn) at 13,14,18,19,21,25,34,37; 5-(phenyl-ethynyl)-dU (dUEPh) at 10,11,12,17,26,28,30,32,35,38,40
B6: the binding signal in data set [1] was found to be 45500 a.u. fluorescence.

B7: HIR-6_T7 (XNA)
DNA: CGCTCACTGTATCTCGCGUUUAACGUAACAGCGAU
modifications: DNA backbone; 7-deaza-7-(indolyl-ethyl)-dA (dAAIn) at 22,23,27,28,30,34; 5-(phenyl-ethynyl)-dU (dUEPh) at 19,20,21,26,35
Turning to B7, the binding signal in data set [1] came to 16500 a.u. fluorescence.

B8: HIR-6_T4 (XNA)
DNA: CGCTCACTGTATCTCGCGUUUAACGUAACAGCGAUGUCUCUCAUGAUGUC
modifications: DNA backbone; 7-deaza-7-(indolyl-ethyl)-dA (dAAIn) at 22,23,27,28,30,34,43,46; 5-(phenyl-ethynyl)-dU (dUEPh) at 19,20,21,26,35,37,39,41,44,47,49
B8: in data set [1], the binding signal amounted to 44700 a.u. fluorescence.

B9: HIR-6_N (ssDNA)
DNA: CATGACGCTCACTGTATCTCGCGTTTAACGTAACAGCGATGTCTCTCATGATGTC
In data set [1], B9 yielded a binding signal of 184 ± 176 a.u. fluorescence. In addition, the binding result in data set [2] is “no binding”.

B10: HIR-8_N (ssDNA)
DNA: B9 DNA with G23C, C34G
For the molecule B10, in data set [1], the binding signal stood at 553 ± 165 a.u. fluorescence. For the same molecule, in data set [2], the binding result is listed as “no binding”.

B11: HIR-6_M2 (XNA)
DNA: B9 DNA with T24U, T25U, T26U, T31U, T40U
modifications: DNA backbone; 7-deaza-7-(indolyl-ethyl)-dA (dAAIn) at 27,28,32,33,35,39; 5-(phenyl-ethynyl)-dU (dUEPh) at 24,25,26,31,40
With B11, in data set [1], the binding signal is 28300 a.u. fluorescence.

B12: HIR-6_T3 (XNA)
DNA: CATGACGCTCACTGTATCTCGCGUUUAACGUAACAGCGAU
modifications: DNA backbone; 7-deaza-7-(indolyl-ethyl)-dA (dAAIn) at 27,28,32,33,35,39; 5-(phenyl-ethynyl)-dU (dUEPh) at 24,25,26,31,40
In data set [1], B12 registered a binding signal of 19900 a.u. fluorescence.

B13: HIR-6_T9 (XNA)
DNA: CGCTCACTGTATCTCGCGUUUAACGUAACAGCGAUGUCUC
modifications: DNA backbone; 7-deaza-7-(indolyl-ethyl)-dA (dAAIn) at 22,23,27,28,30,34; 5-(phenyl-ethynyl)-dU (dUEPh) at 19,20,21,26,35,37,39
B13 had a binding signal in data set [1] of 24700 a.u. fluorescence.

For the origin of these results see PMC13389011, “Expedient single-round selection of hyper-modified aptamer targeting insulin receptor from over-represented dually nucleobase-modified DNA libraries”.
